In patent US20250136688A1 (Janssen / Centocor, published 2025):

Key:
[1] = target: T1, ectonucleotide pyrophosphatase/phosphodiesterase family member 3 (ENPP3) (human, UniProt O14638 1-875); assay: flow cytometry on A704 cells
T1 construct: whole, on cells; also called CD203c
T1 sequence (looked up): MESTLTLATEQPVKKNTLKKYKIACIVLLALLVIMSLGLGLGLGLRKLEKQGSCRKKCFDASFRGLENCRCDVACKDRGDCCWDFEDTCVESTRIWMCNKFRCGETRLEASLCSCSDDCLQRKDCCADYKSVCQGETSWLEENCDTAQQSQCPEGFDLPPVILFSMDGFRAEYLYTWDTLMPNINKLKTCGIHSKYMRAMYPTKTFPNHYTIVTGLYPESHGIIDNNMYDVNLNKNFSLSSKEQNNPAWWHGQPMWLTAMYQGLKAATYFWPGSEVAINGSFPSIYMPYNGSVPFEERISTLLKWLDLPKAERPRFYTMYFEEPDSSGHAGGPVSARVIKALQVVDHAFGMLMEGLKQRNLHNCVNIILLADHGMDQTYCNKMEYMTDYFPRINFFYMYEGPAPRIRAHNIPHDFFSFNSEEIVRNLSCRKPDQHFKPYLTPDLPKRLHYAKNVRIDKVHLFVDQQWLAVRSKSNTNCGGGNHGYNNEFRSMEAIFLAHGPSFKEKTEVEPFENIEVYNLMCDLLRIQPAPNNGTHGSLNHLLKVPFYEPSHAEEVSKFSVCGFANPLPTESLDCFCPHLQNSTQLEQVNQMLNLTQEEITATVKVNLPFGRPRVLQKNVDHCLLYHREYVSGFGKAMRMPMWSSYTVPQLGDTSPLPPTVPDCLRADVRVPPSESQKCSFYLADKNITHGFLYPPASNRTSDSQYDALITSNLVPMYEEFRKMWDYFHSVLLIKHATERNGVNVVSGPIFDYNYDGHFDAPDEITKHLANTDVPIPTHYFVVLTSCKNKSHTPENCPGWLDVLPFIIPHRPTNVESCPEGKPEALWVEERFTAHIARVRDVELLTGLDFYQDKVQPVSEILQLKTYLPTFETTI

[2] = target: T1, ectonucleotide …; assay: cell-based or functional assay

B1: NPP3B815 (NPP3B56×CD3B2030-N106A-spFv) (bispecific antibody, human IgG1, kappa, L234A L235A)
chain: EIVLTQSPATLSASPGERVTLSCSASSSVSYMNWYQQKPGCAPRRWIYDSSKLASGVPARFSGSGSGRDYTLTISSLEPEDFAVYYCQQWSRNPPTFGGGTKVEIKGGGSGGSGGCPPCGGSGGQVQLVQSGAEVKKPGSSVKVSCKASGYTFTRSTMHWVKQAPGQGLEWIGYINPSSAYTNYNQKFQGRVTLTADKSTSTAYMELSSLRSEDTAVYYCASPQVHYDYAGFPYWGCGTLVTVSSEPKSSDKTHTCPPCPAPEAAGGPSVFLFPPKPKDTLMISRTPEVTCVVVSVSHEDPEVKFNWYVDGVEVHNAKTKPREEQYNSTYRVVSVLTVLHQDWLNGKEYKCKVSNKALPAPIEKTISKAKGQPREPQVYTLPPSREEMTKNQVSLWCLVKGFYPSDIAVEWESNGQPENNYKTTPPVLDSDGSFFLYSKLTVDKSRWQQGNVFSCSVMHEALHNHYTQKSLSLSPGK
heavy: EVQLVESGGGRVKPGGSLRLSCAASGFTFSDYSMNWVRQAPGKGLEWVSSISSISSYVKYADSVKGRFTMSRDNAKNSLFLQMNSLRDEDMAVYYCARGHYFDYWGQGTLVTVSSASTKGPSVFPLAPSSKSTSGGTAALGCLVKDYFPEPVTVSWNSGALTSGVHTFPAVLQSSGLYSLSSVVTVPSSSLGTQTYICNVNHKPSNTKVDKKVEPKSCDKTHTCPPCPAPEAAGGPSVFLFPPKPKDTLMISRTPEVTCVVVSVSHEDPEVKFNWYVDGVEVHNAKTKPREEQYNSTYRVVSVLTVLHQDWLNGKEYKCKVSNKALPAPIEKTISKAKGQPREPQVYTLPPSREEMTKNQVSLSCAVKGFYPSDIAVEWESNGQPENNYKTTPPVLDSDGSFFLVSKLTVDKSRWQQGNVFSCSVMHEALHNRFTQKSLSLSPGK
light: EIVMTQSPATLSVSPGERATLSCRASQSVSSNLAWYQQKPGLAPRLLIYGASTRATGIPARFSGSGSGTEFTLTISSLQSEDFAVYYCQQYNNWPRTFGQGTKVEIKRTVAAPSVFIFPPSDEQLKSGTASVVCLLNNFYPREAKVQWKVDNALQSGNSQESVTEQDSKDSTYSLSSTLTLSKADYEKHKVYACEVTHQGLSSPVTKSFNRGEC
notes: Heavy Chain 1 = anti-CD3 spFv-Fc (knob); Heavy Chain 2 and Light Chain = anti-ENPP3 Fab arm NPP3B56 (hole); IgG1 with L234A, L235A, D265S; also called ENPP3×CD3
- EC50 [1]: 1.01 nM
- killing EC50 @ 72 hrs, A704, T-cell donor 110040278, E:T 1:1 [2]: 0.075 nM
- killing EC50 @ 72 hrs, A704, T-cell donor 110040278, E:T 3:1 [2]: 0.0484 nM
- killing EC50 @ 72 hrs, A704, T-cell donor 110042496, E:T 1:1 [2]: 0.132 nM
- killing EC50 @ 72 hrs, A704, T-cell donor 110042496, E:T 3:1 [2]: 0.0696 nM
- killing EC50 @ 72 hrs, A704, T-cell donor 110042593, E:T 1:1 [2]: 0.114 nM
- killing EC50 @ 72 hrs, A704, T-cell donor 110042593, E:T 3:1 [2]: 0.0336 nM
- killing EC50 @ 72 hrs, A704, T-cell donor 110044049, E:T 3:1 [2]: 0.0524 nM
- killing EC50 @ 72 hrs, A704, T-cell donor 888668965, E:T 3:1 [2]: 0.0454 nM
- killing EC50 @ 72 hrs, VMRCRCW, T-cell donor 110040278, E:T 1:1 [2]: 0.243 nM
- killing EC50 @ 72 hrs, VMRCRCW, T-cell donor 110040278, E:T 1:3 [2]: 0.456 nM
- killing EC50 @ 72 hrs, VMRCRCW, T-cell donor 110040278, E:T 3:1 [2]: 0.0923 nM
- killing EC50 @ 72 hrs, VMRCRCW, T-cell donor 110042496, E:T 1:1 [2]: 0.465 nM
- killing EC50 @ 72 hrs, VMRCRCW, T-cell donor 110042496, E:T 3:1 [2]: 0.128 nM
- killing EC50 @ 72 hrs, VMRCRCW, T-cell donor 110042593, E:T 1:1 [2]: 0.225 nM
- killing EC50 @ 72 hrs, VMRCRCW, T-cell donor 110042593, E:T 3:1 [2]: 0.0795 nM
- killing EC50 @ 72 hrs, VMRCRCW, T-cell donor 110044049, E:T 1:1 [2]: 0.151 nM
- killing EC50 @ 72 hrs, VMRCRCW, T-cell donor 110044049, E:T 1:3 [2]: 0.226 nM
- killing EC50 @ 72 hrs, VMRCRCW, T-cell donor 110044049, E:T 3:1 [2]: 0.115 nM
- killing EC50 @ 72 hrs, VMRCRCW, T-cell donor 110048457, E:T 1:1 [2]: 0.177 nM
- killing EC50 @ 72 hrs, VMRCRCW, T-cell donor 110048457, E:T 1:3 [2]: 0.276 nM
- killing EC50 @ 72 hrs, VMRCRCW, T-cell donor 110048457, E:T 3:1 [2]: 0.372 nM
- killing EC50 @ 72 hrs, VMRCRCW, T-cell donor 888668965, E:T 1:1 [2]: 0.273 nM
- killing EC50 @ 72 hrs, VMRCRCW, T-cell donor 888668965, E:T 1:3 [2]: 0.469 nM
- killing EC50 @ 72 hrs, VMRCRCW, T-cell donor 888668965, E:T 3:1 [2]: 0.156 nM
- killing EC50 @ 120 hrs, A704, T-cell donor 110040278, E:T 1:1 [2]: 0.041 nM
- killing EC50 @ 120 hrs, A704, T-cell donor 110040278, E:T 1:3 [2]: 0.149 nM
- killing EC50 @ 120 hrs, A704, T-cell donor 110042496, E:T 1:1 [2]: 0.073 nM
- killing EC50 @ 120 hrs, A704, T-cell donor 110042496, E:T 1:3 [2]: 0.191 nM
- killing EC50 @ 120 hrs, A704, T-cell donor 110042593, E:T 1:1 [2]: 0.048 nM
- killing EC50 @ 120 hrs, A704, T-cell donor 110042593, E:T 1:3 [2]: 0.106 nM
- killing EC50 @ 120 hrs, A704, T-cell donor 110044049, E:T 1:1 [2]: 0.125 nM
- killing EC50 @ 120 hrs, A704, T-cell donor 888668965, E:T 1:3 [2]: 0.163 nM
- killing EC50 @ 120 hrs, VMRCRCW, T-cell donor 110040278, E:T 1:1 [2]: 0.264 nM
- killing EC50 @ 120 hrs, VMRCRCW, T-cell donor 110040278, E:T 1:3 [2]: 0.332 nM
- killing EC50 @ 120 hrs, VMRCRCW, T-cell donor 110042496, E:T 1:1 [2]: 0.454 nM
- killing EC50 @ 120 hrs, VMRCRCW, T-cell donor 110042496, E:T 1:3 [2]: 0.5 nM
- killing EC50 @ 120 hrs, VMRCRCW, T-cell donor 110042593, E:T 1:1 [2]: 0.218 nM
- killing EC50 @ 120 hrs, VMRCRCW, T-cell donor 110042593, E:T 1:3 [2]: 0.485 nM
- killing EC50 @ 120 hrs, VMRCRCW, T-cell donor 110044049, E:T 1:1 [2]: 0.216 nM
- killing EC50 @ 120 hrs, VMRCRCW, T-cell donor 110044049, E:T 1:3 [2]: 0.337 nM
- killing EC50 @ 120 hrs, VMRCRCW, T-cell donor 110048457, E:T 1:1 [2]: 0.21 nM
- killing EC50 @ 120 hrs, VMRCRCW, T-cell donor 110048457, E:T 1:3 [2]: 0.267 nM
- killing EC50 @ 120 hrs, VMRCRCW, T-cell donor 888668965, E:T 1:1 [2]: 0.345 nM
- killing EC50 @ 120 hrs, VMRCRCW, T-cell donor 888668965, E:T 1:3 [2]: 0.379 nM
